Molecular target: Small BiT (SB)-eIF4E, full-length
Assay: cell-based or functional assay

Sequence of Small BiT (SB)-eIF4E, full-length (chain, as listed by the source limits assumed): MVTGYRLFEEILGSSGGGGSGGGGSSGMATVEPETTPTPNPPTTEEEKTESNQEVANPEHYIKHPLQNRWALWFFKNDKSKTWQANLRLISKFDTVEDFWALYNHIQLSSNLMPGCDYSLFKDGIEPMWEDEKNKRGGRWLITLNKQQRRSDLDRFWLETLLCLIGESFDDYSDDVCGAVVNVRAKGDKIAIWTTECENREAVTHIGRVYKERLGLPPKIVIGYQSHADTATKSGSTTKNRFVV
Sequence of LB-4E-BP1 - residues 29 to end (Q13541 29-118): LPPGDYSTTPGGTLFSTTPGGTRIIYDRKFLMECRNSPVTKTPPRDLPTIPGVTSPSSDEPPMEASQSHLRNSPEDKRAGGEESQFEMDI

| fold-change of split-luciferase luminescence, rapamycin (50 nM, 1 h) over vehicle; HEK293 cells [fold] | Substance |
| --- | --- |
| 0.89 | 4E-BP1 with C-terminal LB at residue 85 (from UniProt Q13541 1-85) |
| 0.98 | 4E-BP1 with C-terminal LB at residue 95 (from UniProt Q13541 1-95) |
| 1.18 | Full-length 4E-BP1 with C-terminal LB (from UniProt Q13541 2-118) |
| 0.89 | LB-4E-BP1 - residues 29 to end (from UniProt Q13541 29-118) |
